Data from the nanobody polyreactivity screen of Harvey et al. (2022).

Test: yeast display, Sf9 membrane polyspecificity reagent, FACS + sequencing; frameworks hold sequencing errors
Outline: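 Nanobodies from a synthetic yeast display library (Saccharomyces cerevisiae BJ5465), induced 36–48 hours with galactose, were stained 1 hour at 4 °C with 10% biotinylated, detergent-solubilized Sf9 membrane reagent, enriched on streptavidin microbeads, then FACS-sorted. Anti-HA (expression) and streptavidin (reagent binding) fluorescence set low and high (top ~1%) gates. Polyreactivity labels come from the gate of origin. Genes were colony-PCR amplified, MiSeq 2 × 250 sequenced and filtered by CDR length.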
For “QVQLVESGGGLVQAGGSLRLSCAASGSTFASNAMGWYRQAPGKERELVAAITSRDASTYYADSVKGRFTISRDNAKNTVYLQMNSLKPEDTAVYYCATDGYSPAAFDYWGQGTQVTVSS”, the “polyreactivity (PSR sort gate)” value was “low polyreactivity”. For “QVQLVESGGGLVQAGGSLRLSCAASGSTFASYAMGWYIQAPGKERELVAAITDSGGSTYYADSVKGRFTISRDNAKNTVYLQMNSLKPEDTAVYYCAAYGPYFSYHDYDYWGQGTQVTVSS”, the “polyreactivity (PSR sort gate)” value was “low polyreactivity”. With “QVQLVESGGGLVQAGGSLRLSCAASGSTFASYAMGWYRQAPGKERELVAAIRWRGGTTYYADSVKGRFTISRDNAKNTVNLQMNSLKPEDTAVYYCNADRYYLYYFWGQGTQVTVSS” the “polyreactivity (PSR sort gate)” value was “low polyreactivity”. With “QVQLVESGGGLVQAGGSLRLSCAASGSTFATDAMGWYRQAPGTERELVAVISRSGGSTYYADSVKGRFTISRDNAKNTVYLQMNSLKPEDTAVYYCAARLVNKSRWGTLRYDYWGQGTQVTVSS” the “polyreactivity (PSR sort gate)” value was “high polyreactivity”. In the case of “QVQLVESGGGLVQAGGSLRLSCAASGSTFATNAMGWYRQAPGKERELVAAIRRGGGTYYADSVKGRFTISRDNAKNTVYLQMNSLKPEDTAVYYCAALYGGRRPYEYWGQGTQVTVSS”, the “polyreactivity (PSR sort gate)” value is reported as “high polyreactivity”. For “QVQLVESGGGLVQAGGSLRLSCAASGSTFATNTLGWYRQAPGKERELVAAISRGTSTKYADSVKGRFTISRDNAKNTVYLQMTCLKPEDTAVSYCNAVSRDKSLYDYWGQGTQVTVSS”, the “polyreactivity (PSR sort gate)” value was “high polyreactivity”. With “QVQLVESGGGLVQAGGSLRLSCAASGSTFATYAMGWYRQAPGKERELVAAISKSGGSTYYADSVKGRFTISRDNAKNTVYLQMNSLKPEDTAVYYCAAVGPYRWYDYWGQGTQVTVSS” the “polyreactivity (PSR sort gate)” value was “high polyreactivity”. With “QVQLVESGGGLVQAGGSLRLSCAASGSTFATYAMGWYRQAPGKERELVAAITLRGGRTYYADSVKGRFTISRDNAKNTVYLQMNSLKPEDTAVYYCAAEYYYLSFGLTWWRGFDYWGQGTQVTVSS” the “polyreactivity (PSR sort gate)” value was “high polyreactivity”. With “QVQLVESGGGLVQAGGSLRLSCAASGSTFATYAMGWYRQAPGKERELVAVITRGGRTYYADSVKGRFTISRDNAKNTVYLQMNSLKPEDTAVYYCAAKAYTYYARIGFDYCGQGTQVTVSS” the “polyreactivity (PSR sort gate)” value was “high polyreactivity”. For “QVQLVESGGGLVQAGGSLRLSCAASGSTFAVNAMGWYRQAPGKEREFVASIRGSGGRTSYADSVKGRFTISRDNAKNTVYLQMNCLKPEDTAVYYCAARYVGGTWRSGRYPRSDYWGQGTQVTVSS”, the “polyreactivity (PSR sort gate)” value was “high polyreactivity”. With “QVQLVESGGGLVQAGGSLRLSCAASGSTFAVYAMGWYRQAPGKERELVATITGSGGSTYYADSVKGRFTISRDNAKNTVYLEMNSLKPEDTAVYYCAAEVVAWSLYEDFKTYDYWGQGTQVTVSS” the “polyreactivity (PSR sort gate)” value was “low polyreactivity”. In the case of “QVQLVESGGGLVQAGGSLRLSCAASGSTFAVYAMGWYRQPPGKERELVAAITWSGGSTYYADSVKGRFTISRDNAKNTVYLQMNSLKPEDTAVYYCAAVVVRFIYVYFEFEWGQGTQVTVSS”, the “polyreactivity (PSR sort gate)” value is reported as “low polyreactivity”. For “QVQLVESGGGLVQAGGSLRLSCAASGSTFAWNAMGWYIQAPGKERELVAAISYSGGTTYYADSVKGRFTISRDNAKNTVYLQMNSLKPEDTAVYYCAKWEGHGRNPWGAGTEGDYWGQGTQVTVSS”, the “polyreactivity (PSR sort gate)” value was “low polyreactivity”. With “QVQLVESGGGLVQAGGSLRLSCAASGSTFAWYAMGWYRQAPGKERELVAAISSTVGSTYYADSVKGRFTISRDNAKNTVYLQLKSLKPEDTAVYYCARYYYRYYIRQLALGASTYDYWGQGTQVTVSS” the “polyreactivity (PSR sort gate)” value was “high polyreactivity”. With “QVQLVESGGGLVQAGGSLRLSCAASGSTFAYYAMGLYRQAPGKERELVASISWRGGSTYYADSVKGRFTISRDNAKNTVYLQMNSLKPEVTAVYYCAAGRFYKWSRSQEYDYWGQGTQVTVSS” the “polyreactivity (PSR sort gate)” value was “low polyreactivity”. For “QVQLVESGGGLVQAGGSLRLSCAASGSTFAYYAMGWSRQAPGKERELVASISWRGGSTYYADSVKGRFTNSRDNAKNTVYLQMNSLKPEDTAVYYCAAGRFYIWSRSQEYDYWGQGTQVTVSS”, the “polyreactivity (PSR sort gate)” value was “low polyreactivity”. In the case of “QVQLVESGGGLVQAGGSLRLSCAASGSTFAYYAMGWYRQAPGKERELVAAISVSGGRTYYADSVKGRFTISRDNAKNTVYLQMNSLKPEDTAVYYCAARLWRDYYWGQGTQVTVSS”, the “polyreactivity (PSR sort gate)” value is reported as “high polyreactivity”. With “QVQLVESGGGLVQAGGSLRLSCAASGSTFAYYAMGWYRQAPGKERELVAAISWSGGSTYYADSVKGRFTISRDNAKNTVYLQLNSLKPEDTAVYYCAAGVPSTFQYSYWDYNYWGQGTQVTVSS” the “polyreactivity (PSR sort gate)” value was “low polyreactivity”. With “QVQLVESGGGLVQAGGSLRLSCAASGSTFAYYAMGWYRQAPGKERELVAAITSSGGSTYYADSVKGRFTISRDNAKNTVYLQMNSLKPEDTAVYYCNARYRRKSWRPFDYWGQGTQVTVSS” the “polyreactivity (PSR sort gate)” value was “high polyreactivity”. For “QVQLVESGGGLVQAGGSLRLSCAASGSTFAYYARGWYRQAPGKERELVASISWRGGSTYYADSVKGRFTISRDNAKNTVYLQMNSLKPEDTAFYYCAAGRFYKWSRSQEYDYWGQGTQVTVSS”, the “polyreactivity (PSR sort gate)” value was “low polyreactivity”. In the case of “QVQLVESGGGLVQAGGSLRLSCAASGSTFCRNAMGWYRQAPGKEREFVAVISISSGTTYADSVKGRFTISRDNAKNTVYLQMNSVKPVDTAVYYCAAAIGVYYIDYRYLGTVEYWGQGTQVNVSS”, the “polyreactivity (PSR sort gate)” value is reported as “low polyreactivity”. With “QVQLVESGGGLVQAGGSLRLSCAASGSTFDANAMGWYRQAPGKERELVAAITSNGGSTYYADSVKGRFTISRDNAKNTVYLQMNSLKPEDTAVYYCDTEQHTVQDYDYWGQGTQVTVSS” the “polyreactivity (PSR sort gate)” value was “low polyreactivity”. For “QVQLVESGGGLVQAGGSLRLSCAASGSTFDANAMGWYRQAPGKERELVADITVRDGSTYYADSVKGRFTISRDNAKNTVYLQMNSLKPEDTAVYYCNAGRYTGGYSPGYGYWGLGTQVTVSS”, the “polyreactivity (PSR sort gate)” value was “low polyreactivity”. With “QVQLVESGGGLVQAGGSLRLSCAASGSTFDAYAMGWYRQAPGKDRELVAGISSGGSYEYADSVKGRFTISRDNAKNTVYLQMNSLIPEDTAVYYCAADSRQSVYYYQPTKFDYWGQGSQVTVSS” the “polyreactivity (PSR sort gate)” value was “low polyreactivity”. For “QVQLVESGGGLVQAGGSLRLSCAASGSTFDFYAMGWYRQAPGKERELVARISSGGGRTYYADSVKGRFTISRDNAKNTVYLQLNSLKPEDTAVYYCATDYPWIFGHFLMDYWGQGTQVTVSS”, the “polyreactivity (PSR sort gate)” value was “low polyreactivity”. For “QVQLVESGGGLVQAGGSLRLSCAASGSTFDGNAMGWYRQAPGKERELDAAISWNSGSTYYADSVKGRFTISRDNAKNTVYLQMNSLKPEDTAVYYCAATYGTGRRSKYGYWGQGTQVTVSS”, the “polyreactivity (PSR sort gate)” value was “high polyreactivity”. In the case of “QVQLVESGGGLVQAGGSLRLSCAASGSTFDGYAMGWSRQAPGKERELVGSITRRGGSTYYADSVKGRFTISRDNAKNTVYVQMNSLKPEDTAVYYCAVLGRGVSGYTWPYDYWGQGTQVTVSS”, the “polyreactivity (PSR sort gate)” value is reported as “high polyreactivity”. With “QVQLVESGGGLVQAGGSLRLSCAASGSTFDGYAMGWYRPAPGKERELVAGISTSGGSTYYADSVKGRFTISRDNAKNTVYLQMNSLKPEDSAVYYCAAEWFDQVKDPAADYISYEYWGQGTQVTVSS” the “polyreactivity (PSR sort gate)” value was “low polyreactivity”. For “QVQLVESGGGLVQAGGSLRLSCAASGSTFDGYAMGWYRQAPAKERELVAAISRSGGRTYYADSVNGRFTISRDNAKITVYLQMNSLKPEDTAFYYCAAMYTYKREDYWGQGTQVTVSS”, the “polyreactivity (PSR sort gate)” value was “high polyreactivity”. For “QVQLVESGGGLVQAGGSLRLSCAASGSTFDGYAMGWYRQAPGKERELVAAITSSSTSTYYADSVKGRFTISRDNAKNTVYLQMNSLKPEDTAVYYCAAQYFSYISVYSFYTMGYWGQGTQVTVSS”, the “polyreactivity (PSR sort gate)” value was “low polyreactivity”. With “QVQLVESGGGLVQAGGSLRLSCAASGSTFDINAMGWYRQAPGKERELVAAINSDARTNYADSVKGRFTISRDNAKNTVYLLMNSLKPEDTAVYYCATDTSHSTYQYGYWGQGTQVSVSS” the “polyreactivity (PSR sort gate)” value was “low polyreactivity”. For “QVQLVESGGGLVQAGGSLRLSCAASGSTFDINAMGWYRQAPGKERELVAAITSGGGTNYADSVKGRFTISRDNAKNTVYLQMNSMKPEDTAVYYCAARVRGKYDYWGQGTQVTVSS”, the “polyreactivity (PSR sort gate)” value was “high polyreactivity”. With “QVQLVESGGGLVQAGGSLRLSCAASGSTFDIYAMGWYRQAPGKERELVAAIRGRGGSTYYADSVKGRFTISRDNAKNTVSLQMNSLKPEDTAVYYCAAQTKRQRREFGFWGQGTQVTVSS” the “polyreactivity (PSR sort gate)” value was “high polyreactivity”. For “QVQLVESGGGLVQAGGSLRLSCAASGSTFDIYAMGWYRQAPGKESELVAAISGSSTRTYYADSVKGRFTISRDNAKYTVYLQMNSLKPEDTPGYYCVGRFYERDYWGQGTQVTVSS”, the “polyreactivity (PSR sort gate)” value was “high polyreactivity”. In the case of “QVQLVESGGGLVQAGGSLRLSCAASGSTFDIYVMGWYRQAPGKERELVAAISRVGNTSYADSVKGRFTISRDNAKNTVYLQMNSLKPEDTAVYYCAADAPSWYDRQYDYWGQGTQVTVSS”, the “polyreactivity (PSR sort gate)” value is reported as “low polyreactivity”. In the case of “QVQLVESGGGLVQAGGSLRLSCAASGSTFDLYAMGWYRQAPGKERELVAGISRGGSTYYADSVKGRFTISRDNAKNTVYLQMNSLKPEDTAVYYCAAYFRYRSSRYGYWGQGTQVTVSS”, the “polyreactivity (PSR sort gate)” value is reported as “high polyreactivity”. For “QVQLVESGGGLVQAGGSLRLSCAASGSTFDNYAMGWYRQAPGKERELVAAISYSGGSTHYADSVKGRFTISRDNAKNTVYLQMNSLKPEDTAVYYCAADVSGDKGSIHMNYWGQGTQVTVSS”, the “polyreactivity (PSR sort gate)” value was “low polyreactivity”. In the case of “QVQLVESGGGLVQAGGSLRLSCAASGSTFDPNAMGWYRQAPGKERELVASITSRGGSTYYADSVKGRFTISRDNAKNTVYLQMNSLKPEDTAVYYCAAVGGATYSWNGYSWYAWHNYWGQGTQVTVSS”, the “polyreactivity (PSR sort gate)” value is reported as “low polyreactivity”. In the case of “QVQLVESGGGLVQAGGSLRLSCAASGSTFDPNTMGWYRQAPGKDRELVAAITSSTASTYYADSVKGRFTISRDNAKNTVYLQMNSLKPEDTAVYYCAADSEQDNLRYYRWVWYYYWGQGTQVTVSS”, the “polyreactivity (PSR sort gate)” value is reported as “low polyreactivity”. In the case of “QVQLVESGGGLVQAGGSLRLSCAASGSTFDPYAMGWYRQAPGKERELVAAITSGGGTKYADSVKGRFTISRDNAKNTVYLQMNSLKPEDTAVYYCATDIRAEHGYWGQGTQVTVSS”, the “polyreactivity (PSR sort gate)” value is reported as “low polyreactivity”.
